For assay [1], the target named is T1, Bax (Homo sapiens, UniProt Q07812). The assay can be described thus: Bax-induced apoptosis in transfected neuronal cells (DAPI staining). The arrangement: expressed in transfected cells. It is filed as cell-based. As to the method: (A) HEK293T cells were transfected with pcDNA3-HA-Bax together with plasmids encoding GFP, GFP-HN(N), or GFP-HN(M). Cell lysates were immunoprecipitated with polyclonal anti-GFP antibody. Immunoprecipitates (IP) or cell lysates were analyzed by immunoblotting using anti-HA or anti-GFP antibodies, respectively. (B) CSM14.1 neuronal cells were co-transfected with pcDNA3-HA-Bax together with plasmids encoding GFP, GFP-HN(N), or GFP-HN(M). Percent apoptosis was determined 48 h later by DAPI staining (mean±SD; n=3).
T1 sequence (Q07812 whole entry, species assumed): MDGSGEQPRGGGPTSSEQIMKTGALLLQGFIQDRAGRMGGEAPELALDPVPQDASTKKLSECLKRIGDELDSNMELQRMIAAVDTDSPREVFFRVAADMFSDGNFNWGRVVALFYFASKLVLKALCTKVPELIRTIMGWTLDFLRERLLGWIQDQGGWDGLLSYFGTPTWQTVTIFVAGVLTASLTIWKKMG
Rat neuronal cell line CSM14.1 cells were transfected with various plasmids using the Lipofectamine reagent (Invitrogen). For transfection, 10×10^5 cells were plated per well using 6 well plates. Each well received 1 μg DNA plus […] of Lipofectamine. After 24 hours of transfection, the percentage of cell death was determined using 4′-6-diamidino-2-phenylindole (DAPI) staining. […] The data shown were obtained using the cytosolic form of Humanin; however, both cytosolic and mitochondrial forms of Humanin were tested and the results were the same.
Apoptosis assays were performed as follows. Both floating and adherent cells (after trypsinization) were collected 48 hr after transfection, fixed, and stained using 4′,6-diamidine-2′-phenylindole dihydrochloride (DAPI) for assessing apoptosis based on nuclear fragmentation and chromatin condensation (Fields and Song, supra (1989)).
Since Humanin co-immunoprecipitates with Bax but not Bak, the effects of Humanin over-expression on apoptosis induced by these members of the Bcl-2 family was compared. […] Similar results were obtained regardless of whether Humanin was fused to the N- or C-terminus of GFP, with both of these GFP fusion polypeptides localizing to the cytosol of cells.

The target of assay [2] is T1, Bax. The assay can be described thus: Co-immunoprecipitation of GFP-Humanin fusion polypeptides with Bax in transfected cells. It is filed as binding. Also on record: expressed in transfected cells; host or cells: HEK293T; key to Bax binding: +: ability to bind Bax was determined by co-immunoprecipitation assay; −: lacked Bax-binding activity. As to conditions: for co-immunoprecipitation with tagged Bax: 293T/HEK293T cells, anti-GFP immunoprecipitation. An excerpt:
Humanin (HN) cDNA was sub-cloned into a Green Fluorescence Protein (GFP) expression vector GFP-Cl at the Xhol/Hind III sites, producing a GFP-HN fusion polypeptide. GFP and GFP-HN were transfected into 293T cells with pcDNA3-HA-Bax. Cell lysates from these cells were immunoprecipitated with anti-GFP antibody and subsequently blotted with anti-HA antibody. The lysates were also blotted with ani-GFP antibody to confirm polypeptide expression. […] The data shown were obtained using the cytosolic form of Humanin; however, both cytosolic and mitochondrial forms of Humanin were tested and the results were the same.
Co-immunoprecipitation assays were performed using Humanin polypeptides expressed as fusion polypeptides with the Green Fluorescent Protein (GFP) in human cells. Wild-type Humanin fused to GFP is referred to as GFP-HN and a mutant form of Humanin, where the cysteine at position 8 is replaced with proline, fused to GFP is referred to as GFP-C8P. […] Immunoblot analysis of lysates of the transfected cells confirmed production of all proteins. In addition, GFP-HN also coimmunoprecipitated endogenous Bax from cell lines, which contain relatively high levels of the Bax protein.
Immunoblotting and immunoprecipitations were performed as follows. Immunoblotting was performed as described previously (Fields and Song, Nature 340:245-246 (1989)). For co-immunoprecipitations, cells were cultured in 50 uM […] Valine Alanine Asparate fluoromethyl-ketone (zVAD-fmk) to prevent apoptosis. Cells were suspended in lysis buffer (50 mM Tris-HCl, pH7.4; 150 mM NaCl; 20 mM EDTA; 50 mM NaF; 0.5% NP-40; 0.1 mM Na3VO4; 20 ug/ml Leupeptin; 20 ug/ml Aprotinin; 1 mM DTT; and 1 mM PMSF). Lysates (200 ul diluted in 1 ml final volume of lysis buffer) were cleared by incubation with 15 ul of protein G-Sepharose 4B (Zymed) and then incubated with 15 ul of polyclonal antibody and 15 ul of protein G at 4° C. overnight. Beads were then washed 4 times with 1.5 mls lysis buffer before boiling in Laemmli sample buffer and performing SDS-PAGE/immunoblotting.
In order to explore whether a correlation exists between Humanin binding to Bax and Humanin-mediated suppression of apoptosis, Bax was co-expressed with various GFP-fusion polypeptides encoding wild-type, full-length Humanin or various truncation and site-specific mutants of Humanin (Table 1). Expression of all GFP-fusion polypeptides was confirmed by immunoblotting, and ability to bind Bax was determined by co-immunoprecipitation assay. Each Humanin mutant was scored for ability to suppress apoptosis induced by Bax over-expression by >50% using a 3:1 ratio of HN:Bax plasmid DNA. […] Based on these studies, an active region of the 24 amino-acid Humanin peptide, mapped to residues 7-17.

In the case of “GFP-HN: Wild-type full-length Humanin fused to Green Fluorescent Protein”, in assay [1] (CSM14.1 cells, 48 h, DAPI), the “suppression of Bax-induced apoptosis, nuclear vs mitochondria-encoded form” value is reported as “suppressed to comparable extents”. In assay [1] (CSM14.1 or PC-3 cells, transient co-transfection), the “suppression of apoptosis induced by Bax” value is “about half”. Besides, the “co-immunoprecipitation with tagged Bax” value in assay [2] is reported as “co-immunoprecipitated”; in assay [2] (listed as GFP-HN(N)) it was “comparable amounts”. Besides, the Bax binding result in assay [2] (GFP-fusion polypeptides, co-immunoprecipitation) was “+”. In addition, the “co-immunoprecipitation of endogenous Bax” value in assay [2] (cell lines with relatively high levels of Bax) is recorded as “coimmunoprecipitated”.

For “Humanin: 24 amino acid polypeptide, cytosolic form of human Humanin (SEQ ID NO:2); used as synthetic peptide or expressed fusion”, in assay [1] (CSM14.1 cells, 24 hours after transfection, DAPI), the Bax-induced apoptosis entry was “decreased”. The “co-immunoprecipitation with tagged Bax” value in assay [2] is on record as “co-immunoprecipitate”.

The record behind these values is patent US7422862B2, “Methods for identifying modulators of apoptosis” (The Burnham Institute, priority 2001, dated 2008).
